Measured values reported in article PMC13022382 (Nature Communications, 2026).
Primed or numbered codes have the meaning given here. No end group written: not given here. *: point of attachment. TMR‑6COOH = tetramethylrhodamine, CN(C)c1ccc2c(-c3cc(C(=O)*)ccc3C(=O)[O-])c3ccc(N(C)C)cc3[o+]c2c1; Biotin = O=C1N[C@H]2[C@H](CS[C@H]2CCCCC(=O)*)N1; PEG2′ = Fmoc-PEG2-OH spacer; PEG4′ = not defined here

Assays:
[1] = target: T1, TMR-Hpep11 conjugate; experiment: fluorescence polarisation
T1 peptide: {TMR‑6COOH-PEG2′}-SKRDWREMFRLFRT

[2] = target: T2, TMR-Hpep9 conjugate; experiment: fluorescence polarisation
T2 peptide: {TMR‑6COOH-PEG2′}-RGWSWREMFRLFRT

[3] = target: T3, biotin-Hpep11 conjugate; experiment: BLI
T3 chain: {Biotin-PEG4′}-SKRDWREMFRLFRT

[4] = target: T4, biotin-Hpep9 conjugate; experiment: BLI
T4 chain: {Biotin-PEG4′}-RGWSWREMFRLFRT

B1: cpHaloΔ2 (His10-tagged) (domain or fragment)
chain: DVGRKLIIDQNVFIEGTLPMGVVRPLTEEEMDHYREPFLNPKDREPLWRFPNELPIAGEPANIVALVEEYMDWLHQSPVPKLLFWGTPGVLIPPAEAARLAKSLPNCKAVDIGPGLNLLQEDNPDLIGSEIARWLSTLEIKSKYDRDQILKIIAELEKKTGGSIGTGFPFDPHYVEVLGSRMHYVDVGPRDGTPVLFLHGNPTSSYVWRNIIPHVAPTHRCIAPDLIGMGKSDKPDLGYFFDDHVRFMDAFIEALGLEEVVLVIHDWGSALGFHWAKRHPERVKGIAFMEFIRPIPTWDEW
[1]
  Kd: 38.3 nM
[2]
  Kd: 26.3 nM

B2: TMR-labeled cpHaloΔ3 (domain or fragment)
chain: EKKGDVGRKLIIDQNVFIEGTLPMGVVRPLTEEEMDHYREPFLNPKDREPLWRFPNELPIAGEPANIVALVEEYMDWLHQSPVPKLLFWGTPGVLIPPAEAARLAKSLPNCKAVDIGPGLNLLQEDNPDLIGSEIARWLSTLEIKSKYDRDQILKIIAELEKKTGGSIGTGFPFDPHYVEVLGSRMHYVDVGPRDGTPVLFLHGNPTSSYVWRNIIPHVAPTHRCIAPDLIGMGKSDKPDLGYFFDDHVRFMDAFIEALGLEEVVLVIHDWGSALGFHWAKRHPERVKGIAFMEFIRPIPTWDEWGDVE
modifications: labeled with the HaloTag ligand CA-TMR (chloroalkane derivative of tetramethylrhodamine)
[3]
  Kd: 10.6 nM
  koff: 0.000687 s⁻¹
  kon: 64900 M⁻¹ s⁻¹
[4]
  Kd: 4.86 nM
  koff: 0.00104 s⁻¹
  kon: 214000 M⁻¹ s⁻¹

B3: SiR-labeled cpHaloΔ3 (domain or fragment)
chain: EKKGDVGRKLIIDQNVFIEGTLPMGVVRPLTEEEMDHYREPFLNPKDREPLWRFPNELPIAGEPANIVALVEEYMDWLHQSPVPKLLFWGTPGVLIPPAEAARLAKSLPNCKAVDIGPGLNLLQEDNPDLIGSEIARWLSTLEIKSKYDRDQILKIIAELEKKTGGSIGTGFPFDPHYVEVLGSRMHYVDVGPRDGTPVLFLHGNPTSSYVWRNIIPHVAPTHRCIAPDLIGMGKSDKPDLGYFFDDHVRFMDAFIEALGLEEVVLVIHDWGSALGFHWAKRHPERVKGIAFMEFIRPIPTWDEWGDVE
modifications: labeled with the HaloTag ligand CA-SiR (chloroalkane derivative of silicon rhodamine)
[1]
  Kd: 1.34 nM
[2]
  Kd: 3.26 nM
[3]
  kon: 50000 M⁻¹ s⁻¹
[4]
  Kd: 18.8 nM
  koff: 0.00149 s⁻¹
  kon: 78900 M⁻¹ s⁻¹
